Laboratory results: patent publication CN106946990A

Tests used:
[1] = target: Myc-GST融合蛋白 (Myc tag fused to glutathione [S-transferase]); experiment: indirect ELISA on coated Myc-GST (5 μg/mL), HRP anti-His secondary, 30 min at 70℃
[2] = target: Myc-GST融合蛋白 (Myc tag fused to glutathione [S-transferase]); experiment: indirect ELISA on coated Myc-GST (5 μg/mL), HRP anti-His secondary, 30 min at 80℃
[3] = target: Myc-GST融合蛋白 (Myc tag fused to glutathione [S-transferase]); experiment: indirect ELISA on coated Myc-GST (5 μg/mL), HRP anti-His secondary, 30 min at 90℃

B1: 针对c-Myc标签的单域重链抗体 (single-domain heavy-chain antibody against the c-Myc tag, SEQ ID NO.:1) (VHH, not shown: small tags and cut ends)
VHH: QLQLVESGGGLVQPGGSLRLSCSASGFAFNLFYMGWVRQAPGKGLEWVADIDNTGDKYYAESVEGRFTVSRDNAKKTLYLQMDSLKSEDTAQYYCLKGGCRETFSLCARGQGTQVTVSS
Work on B1 yielded an OD450 [1] of 1.5 OD450, an OD450 [2] of 1.4 OD450 and an OD450 [3] of 1.1 OD450.
